Tests used:
Assay type in all cases: biochemical
Parameters in all cases: key to Activity of mutant relative to wild-type Gaussia luciferase without the signal peptide: ratio of mutant luminescence intensity to wild-type Gaussia luciferase
[1] = Luminescence activity assay of purified Gaussia luciferase mutants on coelenterazine; details: Substrate CTZ (Table 16)
In short: (§1)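 Readout: luminescence intensity, as ratio to signal-peptide-free wild-type enzyme. Enzyme 1 μg/mL, substrate 100 μM stock, 10 μL + 90 μL; buffer 50 mM Tris-HCl pH 8.0, 100 mM NaCl, 0.1% Tween-20.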

[2] = Luminescence activity assay of purified Gaussia luciferase mutants on fluoro-coelenterazine; details: Substrate f-CTZ (Table 16)
Protocol: In this Example, the protein concentration was determined with a BCA quantitative kit (Thermo Scientific™ Pierce™ BCA Protein Assay Kit) accurately. The purified luciferase obtained in Example 5 was diluted with diluent (50 mM Tris-HCl, pH 8.0, 100 mM NaCl, 0.1% (v/v) Tween-20) to 1 μg/mL. The diluted luciferase, taken for 10 μL, was moved into a black 96-well plate, then added with 90 μL of the substrates coelenterazine, fluoro-coelenterazine or coelenterazine derivative ZS2 (purchased from Biolab) which was diluted into 100 μM with the same diluent, and the luminescence intensity of the plate was read with a self-luminescence module of a microplate reader. The mutation site of the mutant, the measured luminescence intensity, the ratio of luminescence intensities of the advantageous mutants to the wild-type Gaussia luciferase without the signal peptide having the sequence shown in SEQ ID NO: 3 are shown in Table 15. The results of catalytic activity assay of the advantageous mutants relative to the wild-type Gaussia luciferase without the signal peptide having the sequence shown in SEQ ID NO: 3 on substrate coelenterazine are shown in FIG. 6. […] The results of catalytic activity assay of the advantageous mutants relative to the wild-type Gaussia luciferase without the signal peptide having the sequence shown in SEQ ID NO: 3 on substrate fluoro-coelenterazine are shown in FIG. 7.
The new mutant library constructed in Example 7 was screened and tested for substrate specificity. Expression and purification schemes were the same as that in Example 5, and the activity assay scheme was the same as that in Example 6. The respective catalytic activities of combinatorial mutants on coelenterazine, fluoro-coelenterazine or coelenterazine derivative ZS2, and coelenterazine derivative ZS26 (purchased from BIOLAB) were assayed, and comparisons among the substrate specificities of the combinatorial mutants were based on the ratios of catalytic activities on two corresponding substrates.

[3] = Luminescence activity assay of purified Gaussia luciferase mutants on coelenterazine derivative ZS2; details: Substrate ZS2 (Table 16)
In short: as §1

Row | Molecule | Activity of mutant relative to wild-type Gaussia luciferase without the signal peptide [1] | Activity of mutant relative to wild-type Gaussia luciferase without the signal peptide [2] | Activity of mutant relative to wild-type Gaussia luciferase without the signal peptide [3]
1 | F26L N27D V29D A30G S33N A36I T37D L40R: Gaussia luciferase mutant (protein, SIGNAL (1)..(17), Gaussia luciferase mutant) MGVKVLFALICIAVAEAKPTENNEDLDIDGVANNFIDTDRDADRGKLPGKKLPLEVLKEMEANARKAGCTRGCLICLSHIKCTPKMKKFIPGRCHTYEGDKESAQGGIGEAIVDIPEIPGFKDLEPMEQFIAQVDLCVDCTTGCLKGLANVQCSDLLKKWLPQRCATFASKIQGQVDKIKGAGGD | 0.726 |  | 1.989
2 | F26R N27D V29E A30G V31I A32D S33N A36N T37A L40R: Gaussia luciferase mutant (protein, SIGNAL (1)..(17), Gaussia luciferase mutant) MGVKVLFALICIAVAEAKPTENNEDRDIEGIDNNFNATDRDADRGKLPGKKLPLEVLKEMEANARKAGCTRGCLICLSHIKCTPKMKKFIPGRCHTYEGDKESAQGGIGEAIVDIPEIPGFKDLEPMEQFIAQVDLCVDCTTGCLKGLANVQCSDLLKKWLPQRCATFASKIQGQVDKIKGAGGD | 0.053 | 0.067 | 0.044
3 | F26R N27Y V29E A30G A32D S33R A36G T37M L40P: Gaussia luciferase mutant (protein, SIGNAL (1)..(17), Gaussia luciferase mutant) MGVKVLFALICIAVAEAKPTENNEDRYIEGVDRNFGMTDPDADRGKLPGKKLPLEVLKEMEANARKAGCTRGCLICLSHIKCTPKMKKFIPGRCHTYEGDKESAQGGIGEAIVDIPEIPGFKDLEPMEQFIAQVDLCVDCTTGCLKGLANVQCSDLLKKWLPQRCATFASKIQGQVDKIKGAGGD | 0.152 | 0.172 | 0.147

Results, then the molecule that gave them:

Row | Activity of mutant relative to wild-type Gaussia luciferase without the signal peptide [1] | Activity of mutant relative to wild-type Gaussia luciferase without the signal peptide [2] | Activity of mutant relative to wild-type Gaussia luciferase without the signal peptide [3] | Molecule
4 | 0.031 | 0.049 | 0.031 | F26R N27D V29D A30G A32D S33N T37A L40P: Gaussia luciferase mutant (protein, SIGNAL (1)..(17), Gaussia luciferase mutant) MGVKVLFALICIAVAEAKPTENNEDRDIDGVDNNFAATDPDADRGKLPGKKLPLEVLKEMEANARKAGCTRGCLICLSHIKCTPKMKKFIPGRCHTYEGDKESAQGGIGEAIVDIPEIPGFKDLEPMEQFIAQVDLCVDCTTGCLKGLANVQCSDLLKKWLPQRCATFASKIQGQVDKIKGAGGD
5 | 0.000 |  | 0.191 | F26L N27D V29A V31L A32D S33N T37E L40T: Gaussia luciferase mutant (protein, SIGNAL (1)..(17), Gaussia luciferase mutant) MGVKVLFALICIAVAEAKPTENNEDLDIAALDNNFAETDTDADRGKLPGKKLPLEVLKEMEANARKAGCTRGCLICLSHIKCTPKMKKFIPGRCHTYEGDKESAQGGIGEAIVDIPEIPGFKDLEPMEQFIAQVDLCVDCTTGCLKGLANVQCSDLLKKWLPQRCATFASKIQGQVDKIKGAGGD
6 | 0.001 |  | 0.395 | F26L N27D V29P A30G V31I A32G S33A A36T T37C L40E I112T: Gaussia luciferase mutant (protein, SIGNAL (1)..(17), Gaussia luciferase mutant) MGVKVLFALICIAVAEAKPTENNEDLDIPGIGANFTCTDEDADRGKLPGKKLPLEVLKEMEANARKAGCTRGCLICLSHIKCTPKMKKFIPGRCHTYEGDKESAQGGIGEATVDIPEIPGFKDLEPMEQFIAQVDLCVDCTTGCLKGLANVQCSDLLKKWLPQRCATFASKIQGQVDKIKGAGGD

From patent publication US20250066745A1, “MUTANTS AND USE THEREOF” (BGI SHENZHEN, priority 2021, published 2025)
